{
  "source": "paper PMC6797079",
  "parents": {"B1": {"name": "sodium/iodide symporter (NIS), wild type, cerulean- or citrine-tagged [human] / itself (parent)", "chain": "MEAVETGERPTFGAWDYGVFALMLLVSTGIGLWVGLARGGQRSAEDFFTGGRRLAALPVGLSLSASFMSAVQVLGVPSEAYRYGLKFLWMCLGQLLNSVLTALLFMPVFYRLGLTSTYEYLEMRFSRAVRLCGTLQYIVATMLYTGIVIYAPALILNQVTGLDIWASLLSTGIICTFYTAVGGMKAVVWTDVFQVVVMLSGFWVVLARGVMLVGGPRQVLTLAQNHSRINLMDFNPDPRSRYTFWTFVVGGTLVWLSMYGVNQAQVQRYVACRTEKQAKLALLINQVGLFLIVSSAACCGIVMFVFYTDCDPLLLGRISAPDQYMPLLVLDIFEDLPGVPGLFLACAYSGTLSTASTSINAMAAVTVEDLIKPRLRSLAPRKLVIISKGLSLIYGSACLTVAALSSLLGGGVLQGSFTVMGVISGPLLGAFILGMFLPACNTPGVLAGLGAGLALSLWVALGATLYPPSEQTMRVLPSSAARCVALSVNASGLLDPALLPANDSSRAPSSGMDASRPALADSFYAISYLYYGALGTLTTVLCGALISCLTGPTKRSTLAPGLLWWDLARQTASVAPKEEVAILDDNLVKGPEELPTGNKKPPGFLPTNEDRLFFLGQKELEGAGSWTPCVGHDGGRDQQETNL"}},
  "variants_of": "B1",
  "experiment": "FRET",
  "settings": "with itself, n = 2, minimum of 20 cells analyzed in each n, read off a plot",
  "data": [
    {"variant": "chain 1 A525F", "values": [
      {"measurement": "response (arbitrary units)", "setting": "HeLa cells, parent: 20", "value": 120},
      {"measurement": "response (arbitrary units)", "setting": "SW1736 cells, parent: 0", "value": 30}
    ]},
    {"variant": "chain 1 D237A", "values": [
      {"measurement": "response (arbitrary units)", "setting": "HeLa cells, parent: 20", "value": 0},
      {"measurement": "response (arbitrary units)", "setting": "SW1736 cells, parent: 0", "value": -70}
    ]}
  ]
}
